Test results taken from patent publication US20240287501A1 (VIB VZW, published 2024).

Experiments:
GFP-tagged MET6 = molecular target: T1, GFP-tagged MET6 (Saccharomyces cerevisiae, UniProt P05694 2-767); experiment: co-immunoprecipitation, Nb coupled to NHS-agarose beads, lysate of the yeast strain expressing the GFP-tagged target, Western blot anti-GFP
T1 construct: Yeast GFP Fusion Collection strain; also called Yeast GFP fusion collection GFP(+)07, D4; YER091C; not shown: GFP tag
T1 sequence (looked up): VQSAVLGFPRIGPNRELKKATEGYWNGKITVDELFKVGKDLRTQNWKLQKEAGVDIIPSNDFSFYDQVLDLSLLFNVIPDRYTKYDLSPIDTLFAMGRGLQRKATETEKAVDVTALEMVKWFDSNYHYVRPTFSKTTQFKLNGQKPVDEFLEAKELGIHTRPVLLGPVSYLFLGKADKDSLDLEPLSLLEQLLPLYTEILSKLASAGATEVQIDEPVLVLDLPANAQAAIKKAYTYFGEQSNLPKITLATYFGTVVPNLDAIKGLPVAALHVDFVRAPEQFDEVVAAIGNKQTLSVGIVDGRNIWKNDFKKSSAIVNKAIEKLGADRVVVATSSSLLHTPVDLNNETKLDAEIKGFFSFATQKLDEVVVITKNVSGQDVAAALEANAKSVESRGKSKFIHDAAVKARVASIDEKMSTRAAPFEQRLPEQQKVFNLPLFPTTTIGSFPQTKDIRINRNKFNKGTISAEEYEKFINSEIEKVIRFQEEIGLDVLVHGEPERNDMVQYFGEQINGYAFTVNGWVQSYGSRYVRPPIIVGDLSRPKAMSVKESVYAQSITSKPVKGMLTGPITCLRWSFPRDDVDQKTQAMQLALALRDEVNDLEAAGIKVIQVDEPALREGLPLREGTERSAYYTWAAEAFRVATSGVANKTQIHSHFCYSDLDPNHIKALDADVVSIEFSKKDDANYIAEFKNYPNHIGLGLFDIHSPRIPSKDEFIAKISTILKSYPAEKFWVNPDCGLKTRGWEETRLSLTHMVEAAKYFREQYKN
Description: (§1) One HSP104-specific Nanobody (04=CA18504 SEQ ID NO:40), one MET6-specific Nanobody (05=CA18505 SEQ ID NO:41), two SBA1-specific Nanobodies (08=Nb clone CA18508 corresponding to SEQ ID NO:42, 09=CA18509-SEQ ID NO:43), one SOD1-specific Nanobody (10=CA18510-SEQ ID NO:44), and a ENO1-specific Nanobody (38=CA17938-SEQ ID NO:45), were characterized by co-immunoprecipitation assays. Each POI-specific Nanobodies was covalently linked to NHS-agarose beads. The beads that were functionalized with these POI-specific Nanobodies were incubated for an hour at 4° C. on a rotating device with the lysate of the engineered Yeast strain expressing the POIs (Yeast GFP fusion collection reference: GFP(+)05, A2 (HSP104); GFP(+)07, D4 (MET6); GFP(+)30, A6 (SBA1); GFP(+)33, F8 (SOD1) and GFP(+)17, D12 (ENO1) as a GFP-tagged protein. After washing, these beads were analyzed on SDS-PAGE (not shown) and Western blot was developed with GFP-specific antibody to confirm the presence of GFP-tagged POIs.

[1] = molecular target: T2, Rat Vesicular GLUtamate Transporter 1 (full-length, HEK293T lysate of Example 7) (rat, UniProt Q62634 1-560); experiment: NANEX: capture from DDM lysate of HEK293T cells, elution with the same Nb
T2 construct: mature; Produced in HEK293T cells as published (Schenck et al., 2017), solubilised in DDM; also called rVGLUT1; rat VGLUT1
T2 sequence (looked up): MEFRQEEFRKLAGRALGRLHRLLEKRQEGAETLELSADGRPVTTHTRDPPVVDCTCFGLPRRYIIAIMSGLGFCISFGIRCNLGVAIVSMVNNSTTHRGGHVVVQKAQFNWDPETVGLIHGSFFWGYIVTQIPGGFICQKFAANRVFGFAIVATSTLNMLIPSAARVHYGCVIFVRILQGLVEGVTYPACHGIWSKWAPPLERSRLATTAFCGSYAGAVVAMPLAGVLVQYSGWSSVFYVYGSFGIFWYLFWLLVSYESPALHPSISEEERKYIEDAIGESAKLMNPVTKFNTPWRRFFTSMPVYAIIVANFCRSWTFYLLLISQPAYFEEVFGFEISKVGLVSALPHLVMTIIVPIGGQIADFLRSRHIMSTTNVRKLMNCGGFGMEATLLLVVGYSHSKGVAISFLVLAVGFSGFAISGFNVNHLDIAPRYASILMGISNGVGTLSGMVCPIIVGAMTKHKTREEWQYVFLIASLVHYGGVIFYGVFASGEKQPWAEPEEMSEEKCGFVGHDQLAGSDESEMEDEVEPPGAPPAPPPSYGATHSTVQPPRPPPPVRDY

GFP-tagged SOD1 = molecular target: T3, GFP-tagged SOD1 (Saccharomyces cerevisiae, UniProt P00445 2-154); experiment: co-immunoprecipitation, Nb coupled to NHS-agarose beads, lysate of the yeast strain expressing the GFP-tagged target, Western blot anti-GFP
T3 construct: Yeast GFP Fusion Collection strain; also called Yeast GFP fusion collection GFP(+)33, F8; YJR104C; not shown: GFP tag
T3 sequence (looked up): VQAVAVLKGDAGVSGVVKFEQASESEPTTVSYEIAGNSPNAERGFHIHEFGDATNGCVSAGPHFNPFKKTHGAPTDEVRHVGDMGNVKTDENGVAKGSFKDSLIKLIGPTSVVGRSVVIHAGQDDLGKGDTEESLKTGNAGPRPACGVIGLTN
Description: as §1

GFP-tagged ENO1 = molecular target: T4, GFP-tagged ENO1 (Saccharomyces cerevisiae, UniProt P00924 2-437); experiment: as above
T4 construct: Yeast GFP Fusion Collection strain; also called Yeast GFP fusion collection GFP(+)17, D12; YGR254W; not shown: GFP tag
Description: as §1

GFP-tagged SIS1 = molecular target: T5, GFP-tagged SIS1 (Saccharomyces cerevisiae, UniProt P25294 1-352); experiment: as above
T5 construct: Yeast GFP Fusion Collection strain; also called Yeast GFP fusion collection GFP(+)22, E5; not shown: GFP tag
T5 sequence (looked up): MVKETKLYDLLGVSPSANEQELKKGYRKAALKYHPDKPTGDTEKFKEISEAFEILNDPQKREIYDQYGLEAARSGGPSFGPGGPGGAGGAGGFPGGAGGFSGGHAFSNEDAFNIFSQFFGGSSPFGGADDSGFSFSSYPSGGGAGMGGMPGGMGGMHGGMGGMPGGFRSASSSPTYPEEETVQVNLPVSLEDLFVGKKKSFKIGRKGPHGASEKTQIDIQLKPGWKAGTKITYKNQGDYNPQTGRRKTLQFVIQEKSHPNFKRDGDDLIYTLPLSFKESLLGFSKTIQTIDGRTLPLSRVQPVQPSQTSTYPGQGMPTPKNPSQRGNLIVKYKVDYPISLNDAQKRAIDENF
Method: One SIS1-specific Nanobody (44=Nb clone CA17444 corresponding to SEQ ID NO: 9), three ALD6-specific Nanobodies (53=CA17453-SEQ ID NO: 10, 54=CA17454-SEQ ID NO: 11, 60=CA17460-SEQ ID NO: 12), two BMH1-specific Nanobodies (58=CA17458-SEQ ID NO: 13, 59=CA17459-SEQ ID NO: 14) were characterized by co-immunoprecipitation assays. Each target-specific Nanobodies was covalently linked to NHS-agarose beads. The beads that were functionalized with these target-specific Nanobodies were incubated for an hour at 4° C. on a rotating device with either an EBY100 lysate or the lysate of the engineered Yeast strain expressing the target (Yeast GFP fusion collection reference for SIS1: GFP(+)22, E5, for ALD6: GFP(+)15, F1, for BMH1: GFP(+)27, D5) as a GFP-tagged protein. After washing, these beads were resuspended in SDS-PAGE loading dye and analyzed on SDS-PAGE (FIG. 8A). Separated proteins were transferred to a PVDF membrane and the Western blot (FIG. 8B) was developed with GFP-specific antibody to confirm the presence of GFP-tagged targets.

[2] = molecular target: T6, SIS1 (native, from EBY100 lysate) (Saccharomyces cerevisiae, UniProt P25294 1-352); experiment: co-IP, Nb on NHS-agarose beads, EBY100 yeast lysate, SDS-PAGE
T6 construct: mature; Endogenous untagged protein; also called YNL007C
T6 sequence (looked up): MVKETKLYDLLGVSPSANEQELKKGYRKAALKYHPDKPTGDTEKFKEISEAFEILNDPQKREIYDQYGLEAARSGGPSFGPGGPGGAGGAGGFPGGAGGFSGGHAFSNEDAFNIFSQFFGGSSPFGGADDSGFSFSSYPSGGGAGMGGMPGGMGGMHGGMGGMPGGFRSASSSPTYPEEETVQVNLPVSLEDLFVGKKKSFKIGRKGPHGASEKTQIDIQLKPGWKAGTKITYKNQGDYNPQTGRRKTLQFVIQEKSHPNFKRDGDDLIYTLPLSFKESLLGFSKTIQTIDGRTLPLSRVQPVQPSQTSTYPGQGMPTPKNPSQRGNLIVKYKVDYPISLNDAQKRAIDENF

GFP protein = molecular target: T7, GFP protein (Aequorea victoria (Water jellyfish) …, UniProt P42212 1-238 = GFP, biotinylated with the EZ-Link sulfo-NHS-LC-biotinylation kit for the BLI assay; unmodified in the NANEX selections); experiment: method not stated
T7 construct: Purified GFP; also called wild type GFP; biotinylated GFP

T4 sequence (P00924 2-437): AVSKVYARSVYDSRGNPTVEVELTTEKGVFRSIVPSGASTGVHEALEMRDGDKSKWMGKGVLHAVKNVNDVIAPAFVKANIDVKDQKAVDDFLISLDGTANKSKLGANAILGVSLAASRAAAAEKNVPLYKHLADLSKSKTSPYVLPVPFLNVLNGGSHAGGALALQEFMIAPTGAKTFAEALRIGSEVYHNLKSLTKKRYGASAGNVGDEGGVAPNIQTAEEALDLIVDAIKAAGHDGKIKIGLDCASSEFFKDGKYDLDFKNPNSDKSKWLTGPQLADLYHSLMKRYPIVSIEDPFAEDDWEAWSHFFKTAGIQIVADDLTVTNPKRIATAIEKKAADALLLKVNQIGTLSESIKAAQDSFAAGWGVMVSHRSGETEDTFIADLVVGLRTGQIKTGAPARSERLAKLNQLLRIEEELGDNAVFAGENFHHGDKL

B1: CA18505 (VHH)
VHH: QVQLVESGGGLVQPGGSLRLSCAASGSIFSINAWGWYRQAPGKERELVAVITSVGGRTNYADSVKGRFTISRDNAKDMVYLQMNSLKPEDTAVYYCNSRGSSWYFGTPQDYWGQGTQVTVSS
notes: C-terminal 6xHis-EPEA tag is part of the entry
binding result (GFP-tagged MET6): binds

B2: CA17875 (VHH)
VHH: QVQLQESGGGLVQAGGSLRLSCAASGRSVRTWSMGWFRQPPGKERELVAGISWSGSGTYHADSVKGRFTISRDNAKNMVYLQMNSLKPEDTAVYYCAAGQTGWNPGSDFHRWGKGTQVTVSS
notes: C-terminal 6xHis-EPEA tag is part of the entry; also called rVGLUT1-specific trapper/stripper
binding result [1]: binds

B3: CA18510 (VHH)
VHH: QVQLVESGGGLVEAGGSLRLSCAASGRTFSSYAMGWFRQAPGKEREFVAAISWSGGSTYYADSVKGRFTISRDNAKNTVYLQMNSLKPEDTAVYYCAAPTAYHYSTTRDEYDSWGQGTQVTVSS
notes: as for B1
binding result (GFP-tagged SOD1): binds

B4: CA17938 (VHH)
VHH: QVQLVESGGGLVQPGGSLRLSCAASGFTLDTWAIGWFRQVPGKDREGAACISSEPSSTYYGEFVNGRFTISRDSAKSTVYLQMNDLKPEDTAVYYCSADRLSAYCSGSGGWGQGTQVTVSS
notes: as for B1
binding result (GFP-tagged ENO1): binds

B5: CA17444 (VHH)
VHH: QVQLVESGGGLVQPGGSLRLSCAASGFTLDYYAIGWFRQAPGKEREGVSCISSSDGSTVYADSVKGRFTISRDNAKNTVYLQMSNLKPEDTAVYYCATDQITSTGCPDFDSWGQGTQVTVSS
notes: as for B1
binding result (GFP-tagged SIS1): binds | binding result [2]: binds

B6: CA15816 (VHH)
VHH: QVQLVESGGGLVQAGGSLRLSCAASGRTFSTAAMGWFRQAPGKERDFVAGIYWAAGSTYYADSAKGRFTISRDNAKNTVYLQMDSLKPEDTAVYYCAARRRGFTLAPTRANEYDYWGQGTQVTVSS
notes: C-terminal 6xHis-EPEA tag is part of the entry, which already carries T54A/V55A; also called GFP trapper; GFP-specific trapper
Kd (GFP protein): 2.7 nM
